Substitutions are numbered along the chain they refer to.
B1: Clone C05: anti-human CD38 antibody, HCVR SEQ ID NO: 34 and LCVR SEQ ID NO: 40 (antibody, V domains shown)
VH: EVQLVESGGSLVKPGGSLRLSCAASGFTFSNNYMNWVRQAPGKGLEWISSISGSSRYISYADFVKGRFTISRDNAKNSLYLQMNSLRAEDTAVYYCVRSSSSYYYSGNGMDVWGRGTLVTVSS
VL: QSVLTQPASVSGSPGQSITISCAGTSSDVGGSSYVSWYQQHPGKAPKLMIYYDSYRPSGVSNRFSGSKSGNTASLTISGLQAEDEADYYCSSNTYYSTRVFGGGTKL
modifications: HCVR C05; LCVR C05/C06
B2: Clone D10: anti-human CD38 antibody, HCVR SEQ ID NO: 38 and LCVR SEQ ID NO: 42 (antibody, V domains shown)
VH: B1 VH with N32S, Y33A, Y57D, S59Y
VL: B1 VL with S32N
modifications: HCVR D10; LCVR D07/D10
B3: Clone D06: anti-human CD38 antibody, HCVR SEQ ID NO: 36 and LCVR SEQ ID NO: 41 (antibody, V domains shown)
VH: EVQLVESGGSLVKPGGSLRLSCAASGFTFSNYDMNWVRQAPGKGLEWISYIYGSSRDISYADFVKGRFTISRDNAKNSLYLQMNSLRAEDTAVYYCVRSSGYYFGYGMDVWGRGTLVTVSS
VL: B1 VL with S33Y, Y52S, Y95A
modifications: HCVR D06; LCVR D06
B4: Clone D07: anti-human CD38 antibody, HCVR SEQ ID NO: 37 and LCVR SEQ ID NO: 42 (antibody, V domains shown)
VH: B1 VH with N32S, Y33A, S50Y, Y57D, N108S
VL: B1 VL with S32N
modifications: HCVR D07; LCVR D07/D10
B5: Clone C06: anti-human CD38 antibody, HCVR SEQ ID NO: 35 and LCVR SEQ ID NO: 40 (antibody, V domains shown)
VH: B1 VH with N32S, Y33A, Y57N, S59Y, S101Y, Y103S, Y105G
VL: B1 VL
modifications: HCVR C06; LCVR C05/C06
B6: ABBV-8E12: monoclonal antibody whose brain/plasma ratio in humans is cited (antibody, chains of the INN, looked up, V domains shown)
VH: EVKVVESGGGLVQPGGSMKLSCVVSGFTFSNYWVNWVRQAPGKGLEWVAQIRLKSDNYATHYEESVKGRFTISRDDSKSSVYLQMNNLRAEDSGIYYCTNWEDYWGQGTTVTVSS
VL: DIVLTQSPDSLAVSLGERATISCRASQSVSTSRYSYIHWYQQKPGQPPKLLIKYASNLESGVPSRFSGSGSGTDFTLNIHPLEPEDFATYYCHHSWEIPLTFGQGTKLEIK

Tests used:
[1] = molecular target: CD38 (on cells of midbrain cultures from Wistar rat embryos) (UniProt Q64244); assay: cell-based or functional assay
[2] = test system: dopaminergic neurons of the right substantia nigra pars compacta; assay: 6-OHDA mouse model, number of DA (TH+) neurons; assay type: in vivo, mice
Procedure: We aimed at determining whether B08 or D06 anti-CD38 antibodies were neuroprotective in vivo against neurodegeneration induced by oxidative stress. Mouse were administered with 6-hydroxydopamine (6-OHDA) in the right striatum. Since 6-OHDA is an analogue of dopamine, it is transported in dopaminergic neurons through the dopamine transporter, resulting in a specific degeneration and loss of dopaminergic neurons of the right substantia nigra pars compacta. It has been extensively used as a test system for novel symptomatic agents and for assessment of neuroprotective and neurorepair strategies (Galindo et al., 2014. In Kostrzewa (Ed.), Handbook of neurotoxicity (1st Ed., pp. 639-651). New York: Springer-Verlag). Since 6-OHDA is injected unilaterally in the right striatum, left striatum remains unaffected and each mouse is its own control.
Two in vivo mouse models were used: the 6-OHDA mouse model and the MPTP mouse model. For the 6-OHDA mouse model, the intoxication protocol was based on the unilateral stereotaxic intrastriatal injection of 6-OHDA in the right striatum. Intracerebral or intravenous injections of treatments were made either the day before the surgical stereotaxic procedure, concomitantly with 6-OHDA during the surgical stereotaxic procedure, or two days after 6-OHDA injection. Animals were sacrificed 8 days after the surgical stereotaxic procedure.
For unilateral 6-OHDA mouse model, animals were anesthetized using Chloral hydrate (400 mg/kg, i.p.) and placed into a stereotactic frame adapted to mice. The injection was performed using a Hamilton syringe at the following coordinates: AP: […], ML: […], DV: […] (corresponding to the atlas of Franklin and Paxinos, 1997). A total volume of 2.5 μL containing or not 5 μg of 6-OHDA diluted in PBS in the presence or the absence of test treatments was injected. The needle was left in place for 10 min after the injection before retraction.
Mice were sacrificed by cervical dislocation, and beheaded to collect brain and blood samples. The brain was fixed in a paraformaldehyde solution (4%) during 1 day before being soaked in sucrose (30%) during 2 days and then froze at −80° C. for further analysis.
Each brain was sliced using a freezing microtome at −30° C. The thickness of each slice was 20 μm. The slicing was done around the substantia nigra (80 slices from slice 51 to 63 according to Allen Mouse Brain).
Slices were then washed out in PBS and incubated with anti-Tyrosine Hydroxylase to stain dopaminergic neurons (Abcam®) during 2 days, at 4° C., with agitation. Slices were incubated with corresponding secondary antibody in the presence of DAPI (Sigma Aldrich®) to stain cell's nuclei during 2 hours at room temperature, and mounted on gelatin-coated slides.
The slices were imaged using a Nikon TE2000 U equipped with a Hamamatsu ORCE-ER camera or with a Zeiss Axio Vert.A1 equipped with an axiocam 503 mono camera. Image analysis was done using Image J software or Zen (Zeiss®).

[3] = test system: midbrain dopaminergic (TH+) neurons; assay: MPP+ intoxication model in midbrain cell cultures, survival of DA (TH+) neurons; assay type: cell-based, Wistar rat; settings: for neuroprotective effect against MPP+-induced DA cell death, compared with reference clone HB7: 3 μM MPP+ between 5 and 7 DIV, each clone and HB7 0.5 μg/mL; for neuroprotective effect in the presence of the lysosomal exocytosis inhibitor vacuolin-1: 3 μM MPP+, test substance 1 μg/mL, vacuolin-1 10 μM
Procedure: For this purpose, spontaneously occurring DA cell death was prevented by a treatment combining depolarizing concentrations of K^+ (30 mM) and MK801 (5 μM), a glutamate receptor antagonist used to prevent unwanted excitotoxic insult. The cultures were then exposed to 3 μM MPP between 5 and 7 days in vitro (DIV) to achieve a loss of approximately 50% of DA neurons.
Animals were treated in accordance with the Guide for the Care and Use of Laboratory Animals (National Research Council, 1996), European Directive 86/609, and the guidelines of the local institutional animal care and use committee. Cultures were prepared from the ventral mesencephalon of gestational age 15.5 Wistar rat embryos (Janvier Breeding Center, Le Genest St Isle, France). Dissociated cells in suspension obtained by mechanical trituration of midbrain tissue pieces were seeded at a density of 1.2-1.5×10^5 cells/cm^2 onto tissue culture supports precoated with 1 mg/mL polyethylenimine diluted in borate buffer pH 8.3 as described (Michel et al., 1997. J Neurochem. 69(4):1499-507). The cultures were then maintained in N5 medium supplemented with 5 mM glucose, 5% horse serum, and 0.5% fetal calf serum, except for the first 3 DIV, when the concentration of fetal calf serum was 2.5% to favor initial maturation of the cultures (Guerreiro et al., 2008. Mol Pharmacol. 74(4):980-9). They were fed daily by replacing 70% of the medium. Routinely, mesencephalic cultures were established on Nunc 24-well culture plates (Thermofischer Scientific, Rochester, N.Y.). Note that these cultures contain tyrosine hydroxylase (TH)^+ neurons that were exclusively dopaminergic (Traver et al., 2006. Mol Pharmacol. 70(1):30-40). TH^+ neurons represented approximately 1-2% of the total number of neuronal cells present in these cultures. The evaluation of the survival of DA neurons was performed by counting cells immunopositive for TH as described (Toulorge et al., 2011. Faseb J. 25(8):2563-73).
Treatments with MPP were performed in cultures where the spontaneous death process was prevented by long-term exposure to depolarizing concentrations of K^+ (30 mM), in the presence of the glutamate receptor antagonist MK801 (5 μM) to prevent unwanted excitotoxic insults as described previously (Douhou et al., 2001. J Neurochem. 78(1): 163-74). Treatments with MPP and potential neuroprotective molecules were carried out between 5 and 7 DIV.
The cultures were fixed for 12 min using 4% formaldehyde in Dulbecco's phosphate-buffered saline (PBS), then washed twice with PBS before an incubation step at 4° C. for 24 h with the following antibodies. A monoclonal anti-TH antibody diluted 1/5000 (ImmunoStar, Inc., Hudson, Wis.) was used to assess the survival of DA neurons. Antibody was diluted in PBS containing 0.2% Triton X-100. Detection of the primary antibodies was performed with an Alexa Fluor-488 conjugate of an anti-mouse IgG antibody.

[4] = test system: human peripheral blood mononuclear cells (PBMCs); assay: IL-10 release from human PBMCs in vitro (ELISA); assay type: cell-based; settings: PBMCs from 3 healthy donors; 10 μg/ml; LPS 500 ng/mL and interferon-γ 1B 100 ng/mL; 24 hours
Procedure: 3 healthy volunteers (Donor 1: Donor 2: Donor 3) served as blood donors. Venous blood (5 mL) was collected into heparinized tubes and immediately processed. Briefly, blood was diluted 1/1 in pre-warmed RPMI 1640 medium. PBMCs were isolated using gradient centrifugation in Ficoll solution (Sigma; 300×g, 30 min). Isolated PBMCs were re-suspended in 1 volume of pre-warmed RPMI 1640 medium and centrifuged again (300×g, 30 min). PBMCs were re-suspended in RPMI 1640 medium supplemented with 10% human serum (Sigma-Aldrich) at a concentration of 10^7 cells per mL. Cells were seeded in 96 well microplate (100 μL per well). Test compounds (10 μg/ml), LPS (500 ng/mL) and interferon-γ 1B (100 ng/mL) were added to PBMCs culture immediately after plating. After 24 hours, cell culture supernatants were collected and frozen at −80° C. for further processing.
IL-10 levels in cell culture supernatants were assayed using an ELISA human IL-10 kit (Ozyme®) according to the indications for use specified by the manufacturer.

[5] = in humans; cited from earlier work

UniProt Q64244, sequence (Q64244 whole entry): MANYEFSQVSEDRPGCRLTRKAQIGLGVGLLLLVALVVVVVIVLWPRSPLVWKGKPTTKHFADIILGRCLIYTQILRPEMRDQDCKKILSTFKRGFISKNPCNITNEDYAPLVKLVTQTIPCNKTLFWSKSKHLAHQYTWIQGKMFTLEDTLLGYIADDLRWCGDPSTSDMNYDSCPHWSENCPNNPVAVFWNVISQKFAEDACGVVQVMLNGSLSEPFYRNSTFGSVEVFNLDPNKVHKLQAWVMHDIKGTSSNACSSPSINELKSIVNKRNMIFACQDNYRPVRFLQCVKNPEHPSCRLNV

Row | Molecule | neuroprotective effect against MPP+-induced DA cell death, compared with reference clone HB7 [3] | neuroprotective effect in the presence of the lysosomal exocytosis inhibitor vacuolin-1 [3] | IL-10 release [4] | further results
1 | murine sCD31 (from UniProt Q08481 18-585) (ligand) |  |  |  | EC50 of prevention of MPP+-induced DA cell loss (TH+ cell survival in midbrain cultures) [1]: 0.036 µg/mL
2 | Daratumumab: anti-CD38 antibody Daratumumab [reference compound] |  |  |  | neuroprotective effect in 6-OHDA model ([2]; 15 mg/kg iv one day before 6-OHDA injection): failed to demonstrate neuroprotective activity
3 | B1 | stronger neuroprotective effect | antagonized | statistically significantly increased | 
4 | B2 | stronger neuroprotective effect |  |  | 
5 | B3 | stronger neuroprotective effect | antagonized | statistically significantly increased | protection of dopaminergic neurons of the right substantia nigra pars compacta ([2]; 0.1 mg/kg injected intracerebrally concomitantly with 6-OHDA): statistically significantly protected
6 | B4 |  | antagonized | statistically significantly increased | 
7 | B5 |  | antagonized |  | 
8 | B6 |  |  |  | Brain/plasma ratio [5]: 0.385%

Reference: patent US20220089765A1, “CD31 COMPETITORS AND USES THEREOF” (ENCEFA, priority 2019, published 2022)
